According to US20030224453A1, “Structural models for cytoplasmic domains of transmembrane receptors” (priority 1998, published 2003):
Ends that are not written are not given here.

T1: integrin β3 cytoplasmic domain (Homo sapiens, UniProt P05106)
T1 sequence (P05106 742-788 limits assumed): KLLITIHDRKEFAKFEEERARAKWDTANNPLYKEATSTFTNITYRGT

T2: Full-length β3 peptide (β3 cytoplasmic tail) (UniProt P05106 742-788, limits assumed)
T2 construct: domain: cytoplasmic domain; also called wild-type β3
T2 peptide (looked up): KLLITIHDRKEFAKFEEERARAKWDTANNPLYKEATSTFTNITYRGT


Experiments:
[1] = target: T1, integrin β3 cytoplasmic domain; test: Immunochemical ELISA: αIIb peptides added to fixed saturating β3 peptide, competition for anti-model protein antibody binding to coated αIIbβ3 (EC50 determination); details: dose of αIIb peptide resulting in B/B0=0.5 with fixed saturating β3 peptide (20-50 nM)
Text: Antibodies raised against a mimic of the present invention were used in an immunochemical assay to identify compounds that bind to the 3 cytoplasmic domain and induce a conformation change. In this assay, the binding of the αIIb and β3 cytoplasmic tails was first analyzed. […] Furthermore, as shown in this Table, point mutations or deletions that disrupted this heptapeptide sequence in the αIIb cytoplasmic domain also disrupted interaction with β3.
αIIbβ3 was purified by gel filtration in accordance with procedures described by Du et al. (Cell 65:409-416 (1991)) with omission of the heparin and Con A affinity chromatography steps. The final product was greater than 95% homogenous as judged by SDS PAGE. In the enzyme-linked immunosorbent assay (ELISA) the αIIbβ3 was used at a concentration of 5 μg/ml in a coating buffer containing 0.1 M NaHCO3 and 0.05% NaN3. Fifty ul/well was used to coat IMMULON II microtiter wells at 4° C. overnight. After removal of the coating solution, 150 Al blocking buffer (coating buffer containing 5% bovine serum albumin) was added. After an additional one hour incubation at 4° C., the blocking buffer was removed and the plates were washed three times with wash buffer (0.01 M Tris, 0.15 M NaCl, 0.01% thimerisol, 0.05% Tween 20, pH 8.0). Twenty-five microliters of the competitor was added to each well followed by 25 μl of a dilution of the anti-model protein antibody. Following mixing, the plate was covered for one hour at 37° C. and washed four times with wash buffer. To quantify bound antibody, 50 μl of horseradish peroxidase-conjugated goat anti-rabbit IgG (Biorad) was diluted to a concentration of 1/1000 in wash buffer containing 1 mg/ml bovine serum albumin. These plates were then incubated at 37° C. for 1.5 hours. After four washes, bound antibody was assayed by measuring peroxidase activity with O-phenylenediamine as a substrate and quantifying reaction product by its optical density at 490 nm. Data were expressed as B/B0 where B=A490 in the presence of competitor and B0=A490 in its absence. In some experiments, varying concentrations of αIIb peptides were added to a fixed, saturating, quantity of β3 peptide (20-50 nM). Competition was again expressed as B/BO, however, B0 was the A490 in the presence of the β3 peptide and no added αIIb peptide. EC50 was defined as the dose of αIIb resulting in B/B0=0.5.

[2] = target: T2, Full-length β3 peptide (β3 cytoplasmic …); test: αIIb peptide titrated with fixed saturating β3 peptide; inhibition of antibody binding to coated αIIbβ3 (ELISA), EC50 at B/B0=0.5
Protocol: In the enzyme-linked immunosorbent assay (ELISA) the αIIbβ3 was used at a concentration of 5 μg/ml in a coating buffer containing 0.1 M NaHCO₃ and 0.05% NaN₃. Fifty ul/well was used to coat IMMULON II microtiter wells at 4° C. overnight. After removal of the coating solution, 150 Al blocking buffer (coating buffer containing 5% bovine serum albumin) was added. After an additional one hour incubation at 4° C., the blocking buffer was removed and the plates were washed three times with wash buffer (0.01 M Tris, 0.15 M NaCl, 0.01% thimerisol, 0.05% Tween 20, pH 8.0). […] Following mixing, the plate was covered for one hour at 37° C. and washed four times with wash buffer. To quantify bound antibody, 50 μl of horseradish peroxidase-conjugated goat anti-rabbit IgG (Biorad) was diluted to a concentration of 1/1000 in wash buffer containing 1 mg/ml bovine serum albumin. These plates were then incubated at 37° C. for 1.5 hours. After four washes, bound antibody was assayed by measuring peroxidase activity with O-phenylenediamine as a substrate and quantifying reaction product by its optical density at 490 nm. Data were expressed as B/B0 where B=A₄₉₀ in the presence of competitor and B0=A₄₉₀ in its absence.

Molecule	EC50 [1] [nM]	EC50 [2] [nM]
KVGFFKRNRPPLEE	> 1000	
KVGFFKRNRPPLEEAAEEGQ	> 1000	
PPLEED [PPLEED]	> 1000	
KRNRPPLEEDDEEGQ [αIIb peptide KRNRPPLEEDDEEGQ]		6
RPPLEED [αIIb heptapeptide RPPLEED]		30
KVGFFKRNRPPLEEDDEEGQ [αIIb peptide KVGFFKRNRPPLEEDDEEGQ]		3

Next, values leading:

EC50 [1] [nM]	EC50 [2] [nM]	Molecule
> 1000		KVGFFPLEEAAEEGQ
> 1000		PLEEDDEEGQ
	8	NRPPLEEDDEEGQ [αIIb peptide NRPPLEEDDEEGQ]
	5	KVGFFKRNRPPLEEDD [αIIb peptide KVGFFKRNRPPLEEDD]
	20	NRPPLEEDD [αIIb peptide NRPPLEEDD]
